Consider one molecule from US20210292393A1.

The target of this test is SARS-CoV-2 full length spike protein, V483A mutant (SARS-CoV-2), P0DTC2. The settings on record: remark: other sources report otherwise.

B1: antibody 262 (antibody, V domains shown)
VH: QVQLVESGGGVVQPGRSLRLSCAASGFTFSSYAMHWVRQAPGKGLEWVAVISYDGSNKYYADSVKGRFTISRDNSKNTLYLQMNSLRAEDTAVYYCARDGGELLWFGELDYYGMDVWGQGTTVTVSS
VL: SYELTQPSSVSVSPGQTARITCSGDVLAKKYARWFQQKPGQAPVLVIYKDSERPSGIPERFSGSSSGTTVTLTISGAQVEDEADYYCYSAADNNRGVFGGGTKLTVL
With B1, the median fluorescence intensity, fold over isotype control (fold over isotype) turned out to be 1.63.
